The text below walks through data of patent US20250277199, “NOVEL CRISPR-CAS NUCLEASES FROM METAGENOMES” (Brain Biotech AG, published 2025).

For the data set, the target named is T1, BMC12 (uncultured bacterium (metagenome)).
T1 chain: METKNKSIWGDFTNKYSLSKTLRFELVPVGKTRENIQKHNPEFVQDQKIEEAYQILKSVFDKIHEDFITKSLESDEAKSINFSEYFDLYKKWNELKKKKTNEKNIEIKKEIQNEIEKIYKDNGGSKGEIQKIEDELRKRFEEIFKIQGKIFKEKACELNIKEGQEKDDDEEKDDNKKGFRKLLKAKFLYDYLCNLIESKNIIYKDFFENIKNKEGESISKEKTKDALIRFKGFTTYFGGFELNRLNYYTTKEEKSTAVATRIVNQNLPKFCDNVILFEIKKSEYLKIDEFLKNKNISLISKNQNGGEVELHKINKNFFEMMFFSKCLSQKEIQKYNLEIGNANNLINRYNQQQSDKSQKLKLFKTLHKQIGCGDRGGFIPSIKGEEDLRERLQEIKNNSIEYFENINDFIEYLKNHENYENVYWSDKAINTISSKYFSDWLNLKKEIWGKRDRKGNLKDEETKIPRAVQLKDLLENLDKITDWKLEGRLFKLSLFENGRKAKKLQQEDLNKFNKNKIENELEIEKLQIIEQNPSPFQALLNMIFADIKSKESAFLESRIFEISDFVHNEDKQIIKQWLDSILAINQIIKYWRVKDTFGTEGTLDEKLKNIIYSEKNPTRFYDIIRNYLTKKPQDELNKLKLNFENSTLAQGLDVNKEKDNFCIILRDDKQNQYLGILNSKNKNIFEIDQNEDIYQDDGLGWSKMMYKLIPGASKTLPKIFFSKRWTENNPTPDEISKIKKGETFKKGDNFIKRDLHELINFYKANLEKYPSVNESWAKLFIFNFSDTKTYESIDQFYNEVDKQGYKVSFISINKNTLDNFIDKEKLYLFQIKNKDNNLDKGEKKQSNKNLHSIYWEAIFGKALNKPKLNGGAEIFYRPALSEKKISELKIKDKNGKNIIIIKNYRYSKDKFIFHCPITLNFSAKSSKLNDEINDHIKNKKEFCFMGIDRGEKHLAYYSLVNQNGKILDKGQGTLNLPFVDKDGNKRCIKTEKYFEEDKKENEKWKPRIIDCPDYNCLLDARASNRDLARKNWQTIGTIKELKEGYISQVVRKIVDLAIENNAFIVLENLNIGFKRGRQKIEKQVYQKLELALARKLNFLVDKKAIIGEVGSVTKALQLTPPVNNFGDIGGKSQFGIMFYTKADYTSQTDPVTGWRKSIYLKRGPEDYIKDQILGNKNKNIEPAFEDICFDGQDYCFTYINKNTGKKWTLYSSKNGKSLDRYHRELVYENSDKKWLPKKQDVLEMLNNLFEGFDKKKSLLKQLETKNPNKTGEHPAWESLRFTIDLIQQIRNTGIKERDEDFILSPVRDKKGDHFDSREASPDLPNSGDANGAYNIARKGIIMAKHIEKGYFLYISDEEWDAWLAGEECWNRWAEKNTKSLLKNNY
The data set is described as follows: cell_activity; PAM not stated; E. coli depletion, 30 C. The method in brief: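 E. coli carrying arabinose-induced (0.2%) BMC nuclease, grown at 30° C., made electrocompetent and electroporated with 50-100 ng plasmid carrying gRNA against malQ. Transformants plated on selective M9-glucose agar with kanamycin/ampicillin (± nourseothricin), and growth scored after 48 h at 30° C.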

B1: malQ gRNA (BMC stem-loop + 24 nt spacer) ; malQ protospacer (ssRNA ; dsDNA)
RNA: GAUUUCUACUAUUGUAGAUGUGGCGGUACGUUGAUGCAUCGCG
DNA 1: GTGGCGGTACGTTGATGCATCGCG
DNA 2: CGCGATGCATCAACGTACCGCCAC
With B1, the activity is > 99.9 % colony reduction.
